Laboratory results from patent publication US11278600B2, “Human alpha-galactosidase variants” (Codexis, Inc., priority 2014, dated 2022).
Residue numbers refer to the chain shown, from its start.

B1: 39 (protein)
chain: LDNGLARTPTMGWLHWERFMCNLDCQEEPDSCISEKLFMEMAELMVSEGWKDAGYEYLCIDDCWMAPQRDSEGRLQADPQRFPHGIRQLANYVHSKGLKLGIYADVGNKTCAGFPGSFGYYDINAQTFADWGVDLLKFDGCYCDSLGNLADGYKHMSLALKQVGASSIVXCEWPLYSWPFQKPNYTEIRQYCNHWRNFADIDDSWKSIKSILDWTSENQERIVDVAGPGGWNDPDMLVIGNFGLSWNQQVTQMALWAIMAAPLFMSNDLRHISPQAKALLQDKDVIAINQDPLGKQGYQLRQGDNFEVWERPLSGLAWAVAMINRQEIGGPRSYTIAVASLGKGVACNPACFITQLLPVKRKLGFYEWTSRLRSHINPTGTVLLQLENTMQMSKDLLL
modifications: Synthetic Polypeptide sequence of Variant No. 39 of mature Human GLA; VARIANT (170)..(170): Xaa = any amino acid or absent
B2: 158 (protein)
chain: LDNGLARTPTMGWLHWERFMCNLDCQEEPDSCISEKLFMEMAELMVSEGWKDAGYEYLCIDDCWMAPQRDSEGRLQADPQRFPHGIKQLANYVHSKGLKLGIYADVGNKTCAGFPGSFGYYDIDAQTFADWGVDLLKFDGCYCDSLENLADGYKHMSLALNRTGRSIVYSCEWPLYMWPFQKPNYTEIRQYCNHWRNFADIDDSWKSIKSILDWTSFNQERIVDVAGPGGWNDPDMLVIGNFGLSWNQQVTQMALWAIMAAPLFMSNDLRHISPQAKALLQDKDVIAINQDPLGKQGYQLRQGDNFEVWERPLSGLAWAVAMINRQEIGGPRSYTIAVASLGKGVACNPACFITQLLPVKRKLGFYEWTSRLRSHINPTGTVLLQLENTMQMSKDLLL
modifications: Synthetic Polypeptide sequence of Variant No. 158 of mature Human GLA
B3: 160 (protein)
chain: B2 chain with K87R, S166A
modifications: Synthetic Polypeptide sequence of Variant No. 160 of mature Human GLA
B4: 164 (protein)
chain: B2 chain with S34D, K87R, M392P
modifications: Synthetic Polypeptide sequence of Variant No. 164 of mature Human GLA
B5: 168 (protein)
chain: B2 chain with K87R, S374M
modifications: Synthetic Polypeptide sequence of Variant No. 168 of mature Human GLA
B6: 169 (protein)
chain: B2 chain with K87R, S374T
modifications: Synthetic Polypeptide sequence of Variant No. 169 of mature Human GLA
B7: 159 (protein)
chain: B2 chain with K87P, L398R
modifications: Synthetic Polypeptide sequence of Variant No. 159 of mature Human GLA
B8: 162 (protein)
chain: B2 chain with K87R, S166K
modifications: Synthetic Polypeptide sequence of Variant No. 162 of mature Human GLA
B9: 167 (protein)
chain: B2 chain with S34R, K87R
modifications: Synthetic Polypeptide sequence of Variant No. 16 of mature Human GLA
B10: 166 (protein)
chain: B2 chain with S34H, K87R, M390R
modifications: Synthetic Polypeptide sequence of Variant No. 166 of mature Human GLA
B11: 163 (protein)
chain: B2 chain with S31D, K87R
modifications: Synthetic Polypeptide sequence of Variant No. 163 of mature Human GLA
B12: 161 (protein)
chain: B2 chain with K87R, S166H
modifications: Synthetic Polypeptide sequence of Variant No. 161 of mature Human GLA
B13: 165 (protein)
chain: B2 chain with S34G, K87R
modifications: Synthetic Polypeptide sequence of Variant No. 165 of mature Human GLA

Columns and labels:
Type in all cases: biochemical
[1] = HTP-analysis of yeast culture supernatants, no challenge (MUGal hydrolysis); settings: activity of the variant/activity of WT GLA (SEQ ID NO: 5), yeast supernatant
How it was run: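 GLA variants were expressed in INVSc1 yeast grown in SD-Ura broth with glucose at 30° C., and culture supernatants were collected after 66-84 h. Supernatant was mixed with McIlvaine buffer pH 4.8 and MUGal (2 mM stock) in 50 mM citrate, 200 mM KCl, pH 4.6, incubated at 37° C. for 30-180 minutes, then quenched with sodium carbonate.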

[2] = HTP-analysis of supernatants pretreated with acid (MUGal hydrolysis); settings: challenge at pH 4.2; activity of the variant/activity of WT GLA (SEQ ID NO: 5); yeast supernatant
How it was run: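 Fluorescence of MUGal hydrolysis (Ex. 355 nm, Em. 448 nm) is read after sodium carbonate quench. The enzyme source is INVSc1 yeast culture supernatant, first exposed to pH 3.3-4.3 McIlvaine buffer at 37° C. for 1-3 h, then reacted at pH 4.8 for 30-180 minutes.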

[3] = HTP-analysis of supernatants pretreated with base (MUGal hydrolysis); settings: challenge at pH 7.1; activity of the variant/activity of WT GLA (SEQ ID NO: 5); yeast supernatant
How it was run: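 GLA variants secreted from yeast INVSc1; culture supernatants pre-incubated with McIlvaine buffer pH 7.0–8.2 or 200 mM bicarbonate pH 9.1–9.7 at 37° C. for 1–18 h. Residual activity: MUGal (4 mM stock) hydrolysis at pH 4.3–4.8, 37° C., 30–180 min, carbonate quench; fluorescence Ex 355/Em 448 nm.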

Molecule | Relative Activity of GLA Variants After No Challenge (NC) [1] | Relative Activity of GLA Variants After Challenge at pH 4.2 [2] | Relative Activity of GLA Variants After Challenge at pH 7.1 [3]
B1 | + (+ = 0.5 to 1.5 relative activity over WT GLA (SEQ ID NO: 5)) | ++ (++ = >1.5 to 2.5 relative activity over WT GLA (SEQ ID NO: 5)) | ++ (++ = >1.5 to 2.5 relative activity over WT GLA (SEQ ID NO: 5))
B2 | ++ (++ = >1.5 to 2.5 relative activity over WT GLA (SEQ ID NO: 5)) | + (+ = 0.5 to 1.5 relative activity over WT GLA (SEQ ID NO: 5)) | ++ (++ = >1.5 to 2.5 relative activity over WT GLA (SEQ ID NO: 5))
B3 | + (+ = 0.5 to 1.5 relative activity over WT GLA (SEQ ID NO: 5)) | ++ (++ = >1.5 to 2.5 relative activity over WT GLA (SEQ ID NO: 5)) | + (+ = 0.5 to 1.5 relative activity over WT GLA (SEQ ID NO: 5))
B4 | + (+ = 0.5 to 1.5 relative activity over WT GLA (SEQ ID NO: 5)) | − (− = <0.5 relative activity to WT GLA (SEQ ID NO: 5)) | − (− = <0.5 relative activity to WT GLA (SEQ ID NO: 5))
B5 | ++ (++ = >1.5 to 2.5 relative activity over WT GLA (SEQ ID NO: 5)) | ++ (++ = >1.5 to 2.5 relative activity over WT GLA (SEQ ID NO: 5)) | ++ (++ = >1.5 to 2.5 relative activity over WT GLA (SEQ ID NO: 5))
B6 | ++ (++ = >1.5 to 2.5 relative activity over WT GLA (SEQ ID NO: 5)) | ++ (++ = >1.5 to 2.5 relative activity over WT GLA (SEQ ID NO: 5)) | ++ (++ = >1.5 to 2.5 relative activity over WT GLA (SEQ ID NO: 5))
B7 | + (+ = 0.5 to 1.5 relative activity over WT GLA (SEQ ID NO: 5)) | + (+ = 0.5 to 1.5 relative activity over WT GLA (SEQ ID NO: 5)) | + (+ = 0.5 to 1.5 relative activity over WT GLA (SEQ ID NO: 5))
B8 | + (+ = 0.5 to 1.5 relative activity over WT GLA (SEQ ID NO: 5)) | + (+ = 0.5 to 1.5 relative activity over WT GLA (SEQ ID NO: 5)) | + (+ = 0.5 to 1.5 relative activity over WT GLA (SEQ ID NO: 5))
B9 | + (+ = 0.5 to 1.5 relative activity over WT GLA (SEQ ID NO: 5)) | + (+ = 0.5 to 1.5 relative activity over WT GLA (SEQ ID NO: 5)) | + (+ = 0.5 to 1.5 relative activity over WT GLA (SEQ ID NO: 5))
B10 | ++ (++ = >1.5 to 2.5 relative activity over WT GLA (SEQ ID NO: 5)) | + (+ = 0.5 to 1.5 relative activity over WT GLA (SEQ ID NO: 5)) | + (+ = 0.5 to 1.5 relative activity over WT GLA (SEQ ID NO: 5))
B11 | + (+ = 0.5 to 1.5 relative activity over WT GLA (SEQ ID NO: 5)) | + (+ = 0.5 to 1.5 relative activity over WT GLA (SEQ ID NO: 5)) | + (+ = 0.5 to 1.5 relative activity over WT GLA (SEQ ID NO: 5))
B12 | + (+ = 0.5 to 1.5 relative activity over WT GLA (SEQ ID NO: 5)) | + (+ = 0.5 to 1.5 relative activity over WT GLA (SEQ ID NO: 5)) | + (+ = 0.5 to 1.5 relative activity over WT GLA (SEQ ID NO: 5))
B13 | + (+ = 0.5 to 1.5 relative activity over WT GLA (SEQ ID NO: 5)) | − (− = <0.5 relative activity to WT GLA (SEQ ID NO: 5)) | − (− = <0.5 relative activity to WT GLA (SEQ ID NO: 5))
